Test results: US7335814B2, “Transgenic cells expressing glucosyltransferase nucleic acids” (The University of York, priority 2000, dated 2008)

How the values were obtained:
Experiment in all cases: purified protein, by the assay type
Conditions in all cases: other: glucose ester formation; pH 7.0; 30.0 °C
[1] = substrate: O=C(O)C=Cc1ccccc1
[2] = substrate: COc1cc(/C=C/C(=O)O)ccc1O
[3] = substrate: O=C(O)/C=C/c1ccc(O)cc1

B1: recombinant GTase A911 (Arabidopsis thaliana) (protein)
chain: MGSSEGQETHVLMVTLPFQGHINPMLKLAKHLSLSSKNLHINLATIESARDLLSTVEKPRYPVDLVFFSDGLPKEDPKAPETLLKSLNKVGAMNLSKIIEEKRYSCIISSPFTPWVPAVAASHNISCAILWIQACGAYSVYYRYYMKTNSFPDLEDLNQTVELPALPLLEVRDLPSFMLPSGGAHFYNLMAEFADCLRYVKWVLVNSFYELESEIIESMADLKPVIPIGPLVSPFLLGDGEEETLDGKNLDFCKSDDCCMEWLDKQARSSVVYISFGSMLETLENQVETIAKALKNRGLPFLWVIRPKEKAQNVAVLQEMVKEGQGVVLEWSPQEKILSHEAISCFVTHCGWNSTMETVVAGVPVVAYPSWTDQPIDARLLVDVFGIGVRMRNDSVDGELKVEEVERCIEAVTEGPAAVDIRRRAAELKRVARLALAPGGSSTRNLDLFISDITIA
[1]
  Km: 50 µM
[2]
  Km: 340 µM
[3]
  Km: 390 µM
  Vmax: 11.10 nkat/mg
